Assay results taken from article PMC6748592.

Target: CD52 peptide mimotope (…) (human)
Assay: SPR

B1: MAB1 light chain N33D mutant (antibody, V domains shown)
VH: EVQLVESGGGLVQPGGSLRLSCAASGFPFSNYWMNWVRQAPGKGLEWVGQIRLKSNNYATHYAESVKGRFTISRDDSKNSLYLQMNSLKTEDTAVYYCTPIDYWGQGTTVTVSS
VL: DIVMTQTPLSLSVTPGQPASISCKSSQSLLYSDGKTYLNWVLQKPGQSPQRLIYLVSKLDSGVPDRFSGSGSGTDFTLKISRVEAEDVGVYYCVQGSHFHTFGQGTKLEIK
**Q.** For B1, which Kd is on record?
**A.** 1250 nM
